Reference: patent publication US20260125477A1 (BEIJING MABWORKS BIOTECH, published 2026)

How the values were obtained:
[1] = target: T1, mouse B7-H3/CD276 protein, with His tag (mouse, UniProt Q8VE98 29-244, limits assumed); assay: SPR (Biacore T200), antibody captured on Protein A chip, His-tagged antigen injected
T1 construct: Bought protein
T1 sequence (looked up): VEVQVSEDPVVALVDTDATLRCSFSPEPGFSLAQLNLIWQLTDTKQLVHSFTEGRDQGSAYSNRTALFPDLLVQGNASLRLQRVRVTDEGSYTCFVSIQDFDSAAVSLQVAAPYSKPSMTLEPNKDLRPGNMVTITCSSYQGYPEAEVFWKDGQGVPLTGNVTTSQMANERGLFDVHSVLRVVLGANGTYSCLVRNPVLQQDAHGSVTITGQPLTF
Procedure: The fully human anti-human B7-H3 antibodies were tested for their binding affinity to human B7-H3 (4Ig), human B7-H3 (2Ig), monkey B7-H3 (monkey B7-H3/CD276 protein, with His tag, Cat #: B73-C52Ha, ACROBiosystems) and mouse B7-H3 protein (mouse B7-H3/CD276 protein, with His tag, Cat #: B73-M52H4, ACROBiosystems) by surface plasmon resonance (SPR) using Biacore T200 biosensor (Biacore, US) provided with a pre-fixed Protein A sensor chip. Briefly, the anti-human B7-H3 antibodies (1 μg/mL) were injected to the Biacore T200 biosensor at 10 μL/min for 20 sec, to achieve the desired protein density (100±30 RU).
The data as generated was analyzed using Biacore Insight V2.0.1 5.12933 with the one-to-one Langmuir binding model. The association rate (kₒₙ) and dissociation rate (koff) were obtained at the same time. The affinity was calculated as the quotient of the two kinetic rate constants (KD=koff/kₒₙ).

[2] = target: T2, human B7-H7/HHLA2 protein, with His tag (MALS verified) (human, UniProt Q9UM44 23-344, limits assumed); assay: SPR (Biacore T200), 6B5 captured on Protein A chip; response against concentration
T2 construct: Bought protein
T2 sequence (looked up): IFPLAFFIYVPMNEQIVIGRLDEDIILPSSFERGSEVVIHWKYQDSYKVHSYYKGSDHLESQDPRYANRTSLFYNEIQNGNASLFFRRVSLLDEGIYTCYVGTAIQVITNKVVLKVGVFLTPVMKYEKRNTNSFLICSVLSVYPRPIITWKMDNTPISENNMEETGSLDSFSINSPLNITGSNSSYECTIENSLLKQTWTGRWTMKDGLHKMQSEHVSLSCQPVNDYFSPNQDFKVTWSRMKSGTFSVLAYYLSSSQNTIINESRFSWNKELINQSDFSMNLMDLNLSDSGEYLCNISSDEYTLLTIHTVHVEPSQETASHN
Procedure: (§1) The anti-human B7-H3 antibodies were tested for their binding capability to B7 family proteins by SPR using Biacore T200 biosensor (Biacore, US) provided with a pre-fixed Protein A sensor chip.
(§2) The dissociation was monitored for 600 sec. The data was analyzed using Biacore 8k evaluation software version 3.0, to obtain the binding responses, and the protein concentration-binding response curves were plotted, to determine the cross-reaction of the anti-human B7-H3 antibodies to the B7 family proteins.

[3] = target: T3, human B7-H4 protein, with His tag (MALS verified) (human, UniProt Q7Z7D3 29-258, limits assumed); assay: as above
T3 construct: Bought protein
T3 sequence (looked up): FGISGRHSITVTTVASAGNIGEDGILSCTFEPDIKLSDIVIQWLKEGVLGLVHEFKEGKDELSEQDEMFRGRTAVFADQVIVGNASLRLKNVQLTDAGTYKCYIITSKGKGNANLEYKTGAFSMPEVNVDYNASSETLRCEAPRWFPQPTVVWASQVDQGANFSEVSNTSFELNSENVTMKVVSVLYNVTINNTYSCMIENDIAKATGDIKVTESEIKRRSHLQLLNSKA
Procedure: as §1, §2

B1: 6B5 (antibody, human IgG1, kappa, V domains shown)
VH: QVQLVESGPGLVKPSQTLSLTCTVSDGSISSGGYYWSWIRQHPGKGLEWIGYIYYSGGTYYSPSLKSRVTISVDTSKNQFSLKLTSVTAADTAVYYCARRAGYSSSFDSWGQGILVTVSS
VL: EIVLTQSPLSLPVTPGEPASISCRSSQSLLYSNGYTYLDWYLQKPGQSPQFLIYLGFNRASGVPDRFSGSGSGTDFTLKISRVEAEDVGVYYCMQGLQTPYTFGQGTKLEIKR
notes: also called 6B5-WT; Ab6B5
- Kd [1]: 274 nM
- koff [1]: 0.0159 s⁻¹
- kon [1]: 58300 M⁻¹ s⁻¹
- binding result [2]: no binding (tested: 200 nM)
- binding result [3]: no binding (tested: 200 nM)
